Experimental data reported in ChEMBL document CHEMBL1275444, “Fitness trade-offs in blaTEM evolution” (2008).

Substrate: CC1(C)S[C@@H]2[C@H](NC(=O)[C@H](N)c3ccccc3)C(=O)N2[C@H]1C(=O)O
Conditions: Escherichia coli
Description: Ratio of Kcat to Km for Escherichia coli Beta-Lactamase TEM-1

B1: Beta-lactamase TEM-1 (Escherichia coli), Q4GY26 (protein)
chain: MSIQHFRVALIPFFAAFCLPVFAHPETLVKVKDAEDQLGARVGYIELDLNSGKILESFRPEERFPMMSTFKVLLCGAVLSRVDAGQEQLGRRIHYSQNDLVEYSPVTEKHLTDGMTVRELCSAAITMSDNTAANLLLTTIGGPKELTAFLHNMGDHVTRLDRWEPELNEAIPNDERDTTMPAAMATTLRKLLTGELLTLASRQQLIDWMEADKVAGPLLRSALPAGWFIADKSGAGERGSRGIIAALGPDGKPSRIVVIYTTGSQATMD
Work on B1 yielded a kcat/Km of 2.8 ×10⁷ /M/s.
